Assay results from article PMC9482650, “Quantitative fragmentomics allow affinity mapping of interactomes” (Nature Communications, 2022).

Assays:
Test in all cases: holdup assay
Design in all cases: key: below the threshold = too weak to quantify, mostly under pKd 3.1 to 4
TX1BP3, O14907 = biological target: T1, TX1BP3, O14907
T1 sequence (O14907 10-122, limits assumed, looked up): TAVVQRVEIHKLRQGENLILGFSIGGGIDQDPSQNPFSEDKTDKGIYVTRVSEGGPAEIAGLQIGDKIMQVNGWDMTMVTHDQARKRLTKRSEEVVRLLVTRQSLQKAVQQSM

MPDZ_12, O75970 = biological target: T2, MPDZ_12, O75970
T2 sequence (O75970 1857-1958, limits assumed, looked up): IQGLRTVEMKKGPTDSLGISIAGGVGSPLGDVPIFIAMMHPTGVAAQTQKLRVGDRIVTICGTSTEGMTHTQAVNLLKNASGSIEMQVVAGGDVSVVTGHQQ

SNTG1, Q9NSN8 = biological target: T3, SNTG1, Q9NSN8
T3 sequence (Q9NSN8 52-150, limits assumed, looked up): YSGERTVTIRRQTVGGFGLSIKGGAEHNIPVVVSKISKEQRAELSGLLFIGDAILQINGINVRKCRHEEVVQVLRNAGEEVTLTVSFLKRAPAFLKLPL

SYNJ2BP, P57105 = biological target: T4, SYNJ2BP, P57105
T4 sequence (P57105 8-110, limits assumed, looked up): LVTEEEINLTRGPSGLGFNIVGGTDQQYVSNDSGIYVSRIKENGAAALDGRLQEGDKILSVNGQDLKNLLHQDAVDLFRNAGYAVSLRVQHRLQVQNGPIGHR

MAGI2_3, Q86UL8 = biological target: MAGI2_3, Q86UL8
NOS1, P29475 = biological target: NOS1, P29475
LDB3, O75112 = biological target: LDB3, O75112
MAGI3_2, Q5TCQ9 = biological target: MAGI3_2, Q5TCQ9
DLG4_3, P78352 = biological target: DLG4_3, P78352
MAGI2_2, Q86UL8 = biological target: MAGI2_2, Q86UL8
FRMPD2_2, Q68DX3 = biological target: FRMPD2_2, Q68DX3
IL16_1, Q14005 = biological target: IL16_1, Q14005
DLG4_2, P78352 = biological target: DLG4_2, P78352
SNTG2, Q9NY99 = biological target: T5, SNTG2, Q9NY99
T5 sequence (Q9NY99 68-166, limits assumed, looked up): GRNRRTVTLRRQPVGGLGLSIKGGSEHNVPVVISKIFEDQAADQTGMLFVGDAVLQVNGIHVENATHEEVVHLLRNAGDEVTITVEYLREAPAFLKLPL

SNX27, Q96L92 = biological target: SNX27, Q96L92
SCRIB_2, Q14160 = biological target: SCRIB_2, Q14160
GRIP1_5, Q9Y3R0 = biological target: T6, GRIP1_5, Q9Y3R0
T6 sequence (Q9Y3R0 568-668, limits assumed, looked up): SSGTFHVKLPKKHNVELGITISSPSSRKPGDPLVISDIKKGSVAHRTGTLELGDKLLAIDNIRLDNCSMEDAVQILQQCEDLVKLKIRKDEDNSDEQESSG

LNX2_2, Q8N448 = biological target: T7, LNX2_2, Q8N448
T7 sequence (Q8N448 334-432, limits assumed, looked up): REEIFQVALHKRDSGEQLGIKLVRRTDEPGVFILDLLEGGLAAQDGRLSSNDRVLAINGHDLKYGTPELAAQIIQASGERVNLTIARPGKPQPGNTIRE

NHERF3_4, Q5T2W1 = biological target: T8, NHERF3_4, Q5T2W1
T8 sequence (Q5T2W1 373-468, limits assumed, looked up): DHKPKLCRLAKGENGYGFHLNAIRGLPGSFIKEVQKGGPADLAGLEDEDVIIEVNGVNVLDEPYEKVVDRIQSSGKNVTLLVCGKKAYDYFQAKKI

TIAM2, Q8IVF5 = biological target: T9, TIAM2, Q8IVF5
T9 sequence (Q8IVF5 885-986, limits assumed, looked up): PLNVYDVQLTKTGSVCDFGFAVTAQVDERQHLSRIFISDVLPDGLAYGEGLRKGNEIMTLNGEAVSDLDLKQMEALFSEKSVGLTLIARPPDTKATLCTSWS

MAGI2_5, Q86UL8 = biological target: MAGI2_5, Q86UL8
GRID2IP_1, A4D2P6 = biological target: GRID2IP_1, A4D2P6
DLG5_1, Q8TDM6 = biological target: DLG5_1, Q8TDM6
TJP1_2, Q07157 = biological target: TJP1_2, Q07157
PDZRN3_1, Q9UPQ7 = biological target: T10, PDZRN3_1, Q9UPQ7
T10 sequence (Q9UPQ7 244-349, limits assumed, looked up): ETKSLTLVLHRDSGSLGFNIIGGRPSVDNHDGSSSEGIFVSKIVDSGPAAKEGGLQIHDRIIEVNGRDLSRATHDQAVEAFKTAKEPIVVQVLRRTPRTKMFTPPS

PARD3_3, Q8TEW0 = biological target: PARD3_3, Q8TEW0
GRID2IP_2, A4D2P6 = biological target: GRID2IP_2, A4D2P6
FRMPD2_1, Q68DX3 = biological target: FRMPD2_1, Q68DX3
[1] = plain residues with an end cap or a label only (N-terminal biotin on a linker: ahx)
[2] = plain residues with an end cap or a label only (N-terminal biotin on a linker: ttds)

SCRIB_2, Q14160, sequence (Q14160 857-960): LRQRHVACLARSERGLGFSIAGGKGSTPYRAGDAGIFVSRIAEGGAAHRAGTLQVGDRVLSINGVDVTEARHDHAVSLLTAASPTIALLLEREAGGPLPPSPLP
FRMPD2_2, Q68DX3, sequence (Q68DX3 944-1038): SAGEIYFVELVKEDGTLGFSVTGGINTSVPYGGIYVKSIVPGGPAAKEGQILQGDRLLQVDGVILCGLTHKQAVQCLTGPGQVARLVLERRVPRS
MAGI2_5, Q86UL8, sequence (Q86UL8 915-1017): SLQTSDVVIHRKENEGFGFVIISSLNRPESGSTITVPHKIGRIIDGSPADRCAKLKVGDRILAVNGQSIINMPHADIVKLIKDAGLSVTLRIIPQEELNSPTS
GRID2IP_1, A4D2P6, sequence (A4D2P6 1-87): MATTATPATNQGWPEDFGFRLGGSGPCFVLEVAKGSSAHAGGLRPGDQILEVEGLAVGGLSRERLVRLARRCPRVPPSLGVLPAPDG
FRMPD2_1, Q68DX3, sequence (Q68DX3 770-861): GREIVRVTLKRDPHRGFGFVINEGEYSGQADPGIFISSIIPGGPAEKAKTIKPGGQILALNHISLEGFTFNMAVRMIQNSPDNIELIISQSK
NOS1, P29475, sequence (P29475 9-101): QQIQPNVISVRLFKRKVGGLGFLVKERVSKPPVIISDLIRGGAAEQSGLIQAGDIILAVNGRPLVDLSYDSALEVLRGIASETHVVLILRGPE
TJP1_2, Q07157, sequence (Q07157 181-274): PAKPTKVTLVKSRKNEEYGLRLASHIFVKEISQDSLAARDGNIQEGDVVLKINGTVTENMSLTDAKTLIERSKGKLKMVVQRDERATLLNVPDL
IL16_1, Q14005, sequence (Q14005 210-306): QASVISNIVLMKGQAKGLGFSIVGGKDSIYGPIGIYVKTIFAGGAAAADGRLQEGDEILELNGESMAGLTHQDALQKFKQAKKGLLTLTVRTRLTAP
DLG4_3, P78352, sequence (P78352 306-403): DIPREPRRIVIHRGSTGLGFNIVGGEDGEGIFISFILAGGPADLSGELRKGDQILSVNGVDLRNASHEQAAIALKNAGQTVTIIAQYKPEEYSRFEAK
MAGI2_3, Q86UL8, sequence (Q86UL8 600-682): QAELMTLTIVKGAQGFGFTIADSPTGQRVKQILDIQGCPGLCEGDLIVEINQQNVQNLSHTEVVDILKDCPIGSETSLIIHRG
PARD3_3, Q8TEW0, sequence (Q8TEW0 582-685): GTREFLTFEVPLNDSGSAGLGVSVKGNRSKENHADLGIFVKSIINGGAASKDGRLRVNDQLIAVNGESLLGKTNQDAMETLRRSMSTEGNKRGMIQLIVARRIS
MAGI2_2, Q86UL8, sequence (Q86UL8 410-522): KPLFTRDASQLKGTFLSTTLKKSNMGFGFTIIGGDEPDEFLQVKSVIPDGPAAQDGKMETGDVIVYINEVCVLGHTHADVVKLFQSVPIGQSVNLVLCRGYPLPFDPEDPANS
GRID2IP_2, A4D2P6, sequence (A4D2P6 272-370): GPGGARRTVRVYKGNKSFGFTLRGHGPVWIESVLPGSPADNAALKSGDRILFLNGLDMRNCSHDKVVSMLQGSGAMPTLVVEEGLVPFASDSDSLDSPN
DLG4_2, P78352, sequence (P78352 155-259): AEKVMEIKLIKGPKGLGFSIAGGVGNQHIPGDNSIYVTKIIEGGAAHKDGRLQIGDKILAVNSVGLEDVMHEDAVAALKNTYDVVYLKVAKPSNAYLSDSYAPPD
LDB3, O75112, sequence (O75112 1-94): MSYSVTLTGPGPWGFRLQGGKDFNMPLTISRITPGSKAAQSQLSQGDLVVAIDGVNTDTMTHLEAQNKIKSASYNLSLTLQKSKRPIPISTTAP
MAGI3_2, Q5TCQ9, sequence (Q5TCQ9 398-503): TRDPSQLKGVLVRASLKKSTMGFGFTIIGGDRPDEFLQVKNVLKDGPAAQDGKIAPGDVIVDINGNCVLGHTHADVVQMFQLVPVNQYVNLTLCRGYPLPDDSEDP
DLG5_1, Q8TDM6, sequence (Q8TDM6 617-713): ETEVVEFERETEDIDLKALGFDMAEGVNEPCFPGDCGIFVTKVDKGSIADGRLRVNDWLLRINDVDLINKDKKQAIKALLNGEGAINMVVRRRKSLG

**Q.** How did the pKd (TX1BP3, O14907; [1]) turn out when TIVSWPGTFL [LNX1, Q8TBB1] was run?
**A.** The pKd was 4.39.

**Q.** And the pKd (MPDZ_12, O75970; [1])?
**A.** The pKd was 3.54.

**Q.** And the pKd (SNTG1, Q9NSN8; [1])?
**A.** The pKd was “below the threshold”.

**Q.** And the pKd (SYNJ2BP, P57105; [1])?
**A.** The pKd was 4.49.

**Q.** What about the pKd (MAGI2_3, Q86UL8; [1]) of the same binder?
**A.** The pKd was “below the threshold”.

**Q.** And the pKd (NOS1, P29475; [1])?
**A.** The pKd was “below the threshold”.

**Q.** What about the pKd (LDB3, O75112; [1]) of the same binder?
**A.** The pKd was “below the threshold”.

**Q.** What about the pKd (MAGI3_2, Q5TCQ9; [1]) of the same binder?
**A.** The pKd was “below the threshold”.

**Q.** And the pKd (DLG4_3, P78352; [1])?
**A.** The pKd was “below the threshold”.

**Q.** And the pKd (MAGI2_2, Q86UL8; [1])?
**A.** The pKd was “below the threshold”.

**Q.** What about the pKd (FRMPD2_2, Q68DX3; [1]) of the same binder?
**A.** The pKd was 3.58.

**Q.** What about the pKd (IL16_1, Q14005; [1]) of the same binder?
**A.** Its pKd is “below the threshold”.

**Q.** And the pKd (DLG4_2, P78352; [1])?
**A.** Its pKd is “below the threshold”.

**Q.** What about the pKd (SNTG2, Q9NY99; [1]) of the same binder?
**A.** Its pKd is “below the threshold”.

**Q.** And the pKd (SNX27, Q96L92; [1])?
**A.** Its pKd is 3.79.

**Q.** And the pKd (SCRIB_2, Q14160; [1])?
**A.** Its pKd is “below the threshold”.

**Q.** And the pKd (GRIP1_5, Q9Y3R0; [1])?
**A.** The pKd was “below the threshold”.

**Q.** What about the pKd (LNX2_2, Q8N448; [1]) of the same binder?
**A.** Its pKd is “below the threshold”.

**Q.** What about the pKd (NHERF3_4, Q5T2W1; [1]) of the same binder?
**A.** The pKd was “below the threshold”.

**Q.** What about the pKd (TIAM2, Q8IVF5; [1]) of the same binder?
**A.** The pKd was “below the threshold”.

**Q.** And the pKd (MAGI2_5, Q86UL8; [1])?
**A.** Its pKd is “below the threshold”.

**Q.** What about the pKd (GRID2IP_1, A4D2P6; [1]) of the same binder?
**A.** The pKd was “below the threshold”.

**Q.** And the pKd (DLG5_1, Q8TDM6; [1])?
**A.** The pKd was “below the threshold”.

**Q.** What about the pKd (TJP1_2, Q07157; [1]) of the same binder?
**A.** Its pKd is “below the threshold”.

**Q.** What about the pKd (PDZRN3_1, Q9UPQ7; [1]) of the same binder?
**A.** Its pKd is 3.85.

**Q.** And the pKd (PARD3_3, Q8TEW0; [1])?
**A.** Its pKd is “below the threshold”.

**Q.** And the pKd (GRID2IP_2, A4D2P6; [1])?
**A.** Its pKd is 4.16.

**Q.** And the pKd (FRMPD2_1, Q68DX3; [1])?
**A.** The pKd was “below the threshold”.

**Q.** How did the pKd (TX1BP3, O14907; [2]) turn out when SRRPRTETQV [HPV31-E6, P17386] was run?
**A.** The pKd was 4.61.

**Q.** What about the pKd (MPDZ_12, O75970; [2]) of the same binder?
**A.** The pKd was “below the threshold”.

**Q.** And the pKd (SNTG1, Q9NSN8; [2])?
**A.** The pKd was 4.23.

**Q.** And the pKd (SYNJ2BP, P57105; [2])?
**A.** Its pKd is 5.41.

**Q.** What about the pKd (MAGI2_3, Q86UL8; [2]) of the same binder?
**A.** Its pKd is 4.1.

**Q.** And the pKd (NOS1, P29475; [2])?
**A.** The pKd was 3.91.

**Q.** And the pKd (LDB3, O75112; [2])?
**A.** The pKd was “below the threshold”.

**Q.** What about the pKd (MAGI3_2, Q5TCQ9; [2]) of the same binder?
**A.** The pKd was 5.87.

**Q.** What about the pKd (DLG4_3, P78352; [2]) of the same binder?
**A.** The pKd was 5.1.

**Q.** What about the pKd (MAGI2_2, Q86UL8; [2]) of the same binder?
**A.** Its pKd is 6.38.

**Q.** What about the pKd (FRMPD2_2, Q68DX3; [2]) of the same binder?
**A.** Its pKd is “below the threshold”.

**Q.** What about the pKd (IL16_1, Q14005; [2]) of the same binder?
**A.** Its pKd is “below the threshold”.

**Q.** What about the pKd (DLG4_2, P78352; [2]) of the same binder?
**A.** Its pKd is 5.36.

**Q.** What about the pKd (SNTG2, Q9NY99; [2]) of the same binder?
**A.** The pKd was 4.08.

**Q.** And the pKd (SNX27, Q96L92; [2])?
**A.** Its pKd is 4.64.

**Q.** And the pKd (SCRIB_2, Q14160; [2])?
**A.** Its pKd is 4.38.

**Q.** And the pKd (GRIP1_5, Q9Y3R0; [2])?
**A.** Its pKd is “below the threshold”.

**Q.** What about the pKd (LNX2_2, Q8N448; [2]) of the same binder?
**A.** Its pKd is “below the threshold”.

**Q.** What about the pKd (NHERF3_4, Q5T2W1; [2]) of the same binder?
**A.** The pKd was “below the threshold”.

**Q.** And the pKd (TIAM2, Q8IVF5; [2])?
**A.** The pKd was “below the threshold”.

**Q.** What about the pKd (MAGI2_5, Q86UL8; [2]) of the same binder?
**A.** Its pKd is 3.89.

**Q.** And the pKd (GRID2IP_1, A4D2P6; [2])?
**A.** The pKd was “below the threshold”.

**Q.** And the pKd (DLG5_1, Q8TDM6; [2])?
**A.** Its pKd is “below the threshold”.

**Q.** What about the pKd (TJP1_2, Q07157; [2]) of the same binder?
**A.** The pKd was “below the threshold”.

**Q.** And the pKd (PDZRN3_1, Q9UPQ7; [2])?
**A.** The pKd was 4.09.

**Q.** And the pKd (PARD3_3, Q8TEW0; [2])?
**A.** The pKd was “below the threshold”.

**Q.** What about the pKd (GRID2IP_2, A4D2P6; [2]) of the same binder?
**A.** The pKd was “below the threshold”.

**Q.** What about the pKd (FRMPD2_1, Q68DX3; [2]) of the same binder?
**A.** The pKd was “below the threshold”.
